Literature values, collected in paper PMC5576036.

What was measured:
[1] = target: intermediate-affinity IL-2R (CD122/CD132) (Homo sapiens) (UniProt P14784)
[2] = target: CD122 (IL-2Rβ) (Homo sapiens) (UniProt P14784)
[3] = target: CD25 (IL-2Rα) (Homo sapiens) (UniProt P01589)
Sequence of UniProt P01589 (P01589 22-240): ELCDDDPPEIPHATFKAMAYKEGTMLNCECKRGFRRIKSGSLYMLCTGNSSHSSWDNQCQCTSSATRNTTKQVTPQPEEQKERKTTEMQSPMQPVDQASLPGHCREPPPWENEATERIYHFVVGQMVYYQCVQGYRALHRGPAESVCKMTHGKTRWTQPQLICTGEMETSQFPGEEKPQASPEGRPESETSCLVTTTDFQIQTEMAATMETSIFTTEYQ

In the case of IL-2 (from UniProt P60568), the Kd [1] is listed as 1 nM, the Kd [2] is listed as 100 nM and the Kd [3] is listed as 10 nM.
